According to US20230295259A1 (Protagonist Therapeutics, Inc., priority 2020, published 2023):
Starred links: 1 amine or outer side, 2 acyl side, 3 side chain; linkers in the order of their positions; H or OH if unused. Positions of bridges follow the written chain, without caps; N, C: chain ends. Non-standard residues stand in square brackets, D forms with d. Groups on a side chain read outwards from the residue. No end group written: not given here. *: point of attachment. PEG12 = NCCOCCOCCOCCOCCOCCOCCOCCOCCOCCOCCOCCOCCC(=O)O; C18 diacid = O=C(O)CCCCCCCCCCCCCCCCC(=O)*; Dip = N[C@H](C(=O)O)C(c1ccccc1)c1ccccc1; γGlu = O=C(O)[C@H](CCC(=O)[*:2])N[*:1]; Palmitoyl = CCCCCCCCCCCCCCCC(=O)*; β3hF = N[C@H](CC(=O)O)Cc1ccccc1; Isovaleryl = CC(C)CC(=O)*; AEEA = NCCOCCOCC(=O)O

T1: human ferroportin (Homo sapiens, UniProt Q9NP59)
T1 construct: expressed in transfected cells
T1 sequence (Q9NP59 1-571): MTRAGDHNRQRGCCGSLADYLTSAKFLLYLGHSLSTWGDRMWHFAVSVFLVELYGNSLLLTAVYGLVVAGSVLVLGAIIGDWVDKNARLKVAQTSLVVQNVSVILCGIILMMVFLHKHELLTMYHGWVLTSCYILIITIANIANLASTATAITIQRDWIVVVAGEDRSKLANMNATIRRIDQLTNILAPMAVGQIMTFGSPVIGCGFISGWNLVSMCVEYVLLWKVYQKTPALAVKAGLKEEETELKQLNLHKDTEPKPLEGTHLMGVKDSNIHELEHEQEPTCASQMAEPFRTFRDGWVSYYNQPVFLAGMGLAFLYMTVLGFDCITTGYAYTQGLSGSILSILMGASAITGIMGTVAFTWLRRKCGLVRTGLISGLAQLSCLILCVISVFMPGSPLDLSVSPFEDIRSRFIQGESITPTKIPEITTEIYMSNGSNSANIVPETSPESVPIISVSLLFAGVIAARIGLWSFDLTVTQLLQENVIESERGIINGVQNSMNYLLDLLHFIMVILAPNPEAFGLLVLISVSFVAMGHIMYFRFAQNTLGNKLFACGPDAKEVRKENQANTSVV

T2: ferroportin endogenously expressed on T47D human breast carcinoma cells (human, UniProt Q9NP59 1-571)
T2 sequence (looked up): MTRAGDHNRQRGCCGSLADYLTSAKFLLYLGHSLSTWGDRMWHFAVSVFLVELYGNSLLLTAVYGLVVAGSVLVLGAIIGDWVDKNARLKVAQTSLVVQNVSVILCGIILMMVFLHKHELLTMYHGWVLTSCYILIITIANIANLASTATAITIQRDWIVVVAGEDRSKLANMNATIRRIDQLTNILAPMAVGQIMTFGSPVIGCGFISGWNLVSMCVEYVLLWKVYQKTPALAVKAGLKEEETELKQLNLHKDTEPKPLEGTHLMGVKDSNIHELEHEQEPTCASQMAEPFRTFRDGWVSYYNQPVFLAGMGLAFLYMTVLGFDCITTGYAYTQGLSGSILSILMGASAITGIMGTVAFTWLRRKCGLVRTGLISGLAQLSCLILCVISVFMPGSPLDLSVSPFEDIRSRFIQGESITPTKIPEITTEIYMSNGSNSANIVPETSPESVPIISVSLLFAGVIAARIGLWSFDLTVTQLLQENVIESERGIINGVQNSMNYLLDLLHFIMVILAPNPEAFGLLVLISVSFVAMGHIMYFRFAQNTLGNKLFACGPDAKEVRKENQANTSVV

T3: human ferroportin (SLC40A1) fused in frame with GFP, stably expressed in HEK293 cells (human, UniProt Q9NP59 1-571)
T3 sequence (looked up): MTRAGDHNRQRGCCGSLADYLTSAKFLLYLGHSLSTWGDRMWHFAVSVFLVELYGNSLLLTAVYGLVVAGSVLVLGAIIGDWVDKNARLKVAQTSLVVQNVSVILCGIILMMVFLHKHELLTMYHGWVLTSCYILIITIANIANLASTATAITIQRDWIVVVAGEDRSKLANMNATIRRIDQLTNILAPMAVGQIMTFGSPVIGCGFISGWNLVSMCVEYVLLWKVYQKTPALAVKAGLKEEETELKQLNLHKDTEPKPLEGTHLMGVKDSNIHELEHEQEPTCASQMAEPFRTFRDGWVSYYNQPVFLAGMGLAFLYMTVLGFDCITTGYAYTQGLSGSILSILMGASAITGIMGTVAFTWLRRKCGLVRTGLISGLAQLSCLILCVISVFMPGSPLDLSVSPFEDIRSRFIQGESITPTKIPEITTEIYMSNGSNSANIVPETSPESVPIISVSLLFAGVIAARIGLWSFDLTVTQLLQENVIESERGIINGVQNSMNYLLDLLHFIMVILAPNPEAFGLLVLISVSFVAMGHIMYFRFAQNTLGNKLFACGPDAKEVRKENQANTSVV

T4: ferroportin (endogenously expressed in T47D cells) (Homo sapiens, UniProt Q9NP59)
T4 construct: is a human breast carcinoma adherent cell line which endogenously expresses ferroportin; host or cells: T47D
T4 sequence (Q9NP59 1-571): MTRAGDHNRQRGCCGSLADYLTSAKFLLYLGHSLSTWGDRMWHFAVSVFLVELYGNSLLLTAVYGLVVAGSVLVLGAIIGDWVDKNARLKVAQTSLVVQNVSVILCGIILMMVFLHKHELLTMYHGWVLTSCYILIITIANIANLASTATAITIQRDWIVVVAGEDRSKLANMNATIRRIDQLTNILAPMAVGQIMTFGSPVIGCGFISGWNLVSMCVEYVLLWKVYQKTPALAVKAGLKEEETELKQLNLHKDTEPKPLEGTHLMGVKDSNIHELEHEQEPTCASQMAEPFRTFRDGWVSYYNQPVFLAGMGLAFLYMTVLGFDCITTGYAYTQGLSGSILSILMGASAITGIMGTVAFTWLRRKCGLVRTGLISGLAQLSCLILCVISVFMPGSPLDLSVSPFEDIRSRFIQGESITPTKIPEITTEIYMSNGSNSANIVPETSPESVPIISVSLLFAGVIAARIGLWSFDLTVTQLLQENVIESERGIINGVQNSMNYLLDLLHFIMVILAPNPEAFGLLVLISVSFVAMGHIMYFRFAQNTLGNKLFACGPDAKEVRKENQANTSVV


target: T1, human ferroportin; test: FPN activity assay: internalization/degradation of ferroportin-GFP in stably transfected HEK293 cells (decrease in GFP fluorescence); format: cell-based; conditions: Table 2B; HEK293 cells expressing human ferroportin-GFP, at least 18 hours incubation; read-out: FPN EC50
Description: Following internalization, the ferroportin protein is degraded.
A retro inverse peptide is a peptide with a reversed sequence in all D amino acids. An example is that Hy-Glu-Thr-His-NH2 becomes Hy-DHis-DThr-DGlu-NH2. The EC50 of these reference compounds for ferroportin internalization/degradation was determined according to the FPN activity assay described above. These peptides served as control standards.
These values were determined as described herein.

DC50 | Molecule
0.0043 µM | CC[C@H](C)[C@@H]1NC(=O)[C@@H](NC(=O)[C@@H]2CCCN2C(=O)[C@@H](NC(=O)[C@H](Cc2cnc[nH]2)NC(=O)[C@@H](NC(=O)[C@H](CCC(=O)O)NC(=O)CC(C)C)[C@@H](C)O)C(c2ccccc2)c2ccccc2)CSSC[C@@H](C(N)=O)NC(=O)[C@@H](CCCCN)NC(=O)C[C@H](Cc2ccccc2)NC(=O)[C@H](CCCCNC(=O)COCCOCCNC(=O)COCCOCCNC(=O)[C@H](CN)NC(=O)CCCCCCCCCCCCCCCCC(=O)O)NC1=O [Compound 278, Isovaleric Acid-E-T-H-[Dpa]-P—C—I-[Lys(1PEG2_1PEG2_Dap_C18_Diacid)]-[bhPhe]-[(D)Lys]-C—NH2]

target: T2, ferroportin endogenously expressed on …; test: cell-based or functional assay; conditions: not given

Molecule | IC50: T47D Internalization MSA
XETHXPCIXXXC (not fully specified; Isovaleric Acid-E-T-H-[Dpa]-P-C-I-[Lys(1PEG2_1PEG2_Ahx_C18_Diacid)]-[bhPhe]-[(D)Lys(PEG7_OMe)]-C-NH2) [Compound 256] | 0.0689 µM
XETHXPCIXXXC (Isovaleric Acid-E-T-H-[(4F)Phe]-P-[Cys]-I-[Lys(2Peg11′_Palm)]-[bhPhe]-[(D)Lys]-[Cys]-NH2) [Compound 53] | 0.0013 µM
XETHXXCIXXXC (Isovaleric Acid-E-T-H-[Dpa]-[Npc]-C-I-[Lys(1PEG2_1PEG2_IsoGlu_C18_Diacid)]-[bhPhe]-[(D)Lys]-C-NH2) [Compound 272] | 0.137 µM
Isovaleryl-ETHFPCIK([γGlu-C18 diacid])FEPRSKGCK-NH2 (not fully specified (bridges); cysteine pairing not given here) [Compound 222] | > 1 µM
XETHXPCIXXXXC (Isovaleric Acid-E-T-H-[Dpa]-P-[Cys]-I-[(D)Lys(2Peg11′_OMe)]-[bhPhe]-[Lys(Ahx_Palm)]-[(D)Lys(2Peg11′_OMe)]-[Cys]-NH2) [Compound 19] | 0.00256 µM
XETHXPCIXXXXC (Isovaleric Acid-E-T-H-[Dpa]-P-[Cys]-I-[(D)Lys]-[bhPhe]-[Lys(Ahx_Palm)]-[(D)Lys]-[Cys]-NH2) [Compound 6] | 0.00195 µM
XETXXPCIXXXC (Isovaleric Acid-E-T-[His_1Me]-[Dpa]-P-C-I-[Lys(PEG12_Palm)]-[bhPhe]-[(D)Lys]-C-NH2) [Compound 202] | 0.0043 µM

Next, values leading:

IC50: T47D Internalization MSA | Molecule
0.0154 µM | XXTHXPCIXXXC (Isovaleric Acid-[Glu_OMe]-T-H-[Dpa]-P-C-I-[Lys(1PEG2_1PEG2_Dap_C18_Diacid)]-[bhPhe]-[(D)Lys]-C-NH2) [Compound 279]
0.109 µM | Isovaleryl-ETH[Dip]PCIK(PEG40KB)[β3hF]K([PEG12-Palmitoyl])RC-NH2 (disulfide 6-12 (inferred)) [Compound 296, listing 1 of 2 here]
0.00922 µM | Isovaleryl-ETH[Dip]PCIK([PEG12-Palmitoyl])[β3hF]K(PEG40KB)RC-NH2 (disulfide 6-12 (inferred)) [Compound 295]
0.00719 µM | Isovaleryl-ETH[Dip]PCIK([PEG12-Palmitoyl])[β3hF]K(PEG30K)RC-NH2 (disulfide 6-12 (inferred)) [Compound 294]

target: T3, human ferroportin (SLC40A1) fused in …; test: cell-based or functional assay; conditions: not given

FPN EC50 | Molecule
1.08 µM | Isovaleryl-ETH[Dip]PCIK(PEG40KB)[β3hF]K([PEG12-Palmitoyl])RC-NH2 (disulfide 6-12 (inferred)) [Compound 296, listing 2 of 2 here]
> 3 µM | Isovaleryl-ETHFPCIK([AEEA-AEEA-γGlu-C18 diacid])FEPRSK(Ac)GCT (disulfide 6-16 (inferred)) [Compound 214]
1.36 µM | XETHXPCIXXXC (Isovaleric Acid-E-T-H-[Dpa]-P-C-I-[Lys(1PEG2_1PEG2_Ahx_C18_Diacid)]-[bhPhe]-[(D)Lys(PEG40KB-C-NH2)) [Compound 297]

test system: LAD2 cells; test: not given; format: cell-based, human; conditions: not given
In short: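 Compound serial dilutions were added to LAD2 human mast cells for 30 min. β-Hexosaminidase in supernatants and cell lysates was quantified with the fluorogenic substrate 4-methylumbelliferyl-N-acetyl-b-D-glucosaminide. Dose-response curves plotted % β-hexosaminidase release against peptide concentration.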

EC50 | Molecule
15.5 µM | CC[C@H](C)[C@@H]1NC(=O)[C@@H](NC(=O)[C@@H]2CCCN2C(=O)[C@@H](NC(=O)[C@H](Cc2cnc[nH]2)NC(=O)[C@@H](NC(=O)[C@H](CCC(=O)O)NC(=O)CC(C)C)[C@@H](C)O)C(c2ccccc2)c2ccccc2)CSSC[C@@H](C(N)=O)NC(=O)[C@@H](CCCCN)NC(=O)C[C@H](Cc2ccccc2)NC(=O)[C@H](CCCCNC(=O)COCCOCCNC(=O)COCCOCCNC(=O)[C@H](CN)NC(=O)CCCCCCCCCCCCCCCCC(=O)O)NC1=O [Compound 278, Isovaleric Acid-E-T-H-[Dpa]-P—C—I-[Lys(1PEG2_1PEG2_Dap_C18_Diacid)]-[bhPhe]-[(D)Lys]-C—NH2]

target: T4, ferroportin (endogenously expressed in T47D cells); test: T47D cell-based ferroportin internalization assay in presence of 0.5% mouse serum albumin (AF647-conjugated detection peptide, flow cytometry); conditions: read-out: IC50: T47D Internalization MSA
Description: The potency of the peptides in causing ferroportin internalization was evaluated in a T47D cell-based assay. […] In this internalization assay, the potency of the test peptides was evaluated in the presence of serum albumin, which is the main protein component in the blood. T47D cells were maintained in RPMI media (containing required amount of fetal bovine serum) and regularly sub-cultured. […] The test peptide dilution series were allowed to incubate at room temperature for 30 min. Then the media was aspirated from the 96-well cell plate and test peptide dilution series were added. After 1 hr incubation, the media with test peptides was aspirated out and AF647-conjugated detection peptide was added at fixed concentration of 200 nM. […] The cells were washed again after a 2 hr incubation in preparation for flow cytometry analysis. The Median Fluorescence Intensity (MFI) of the AF647-positive population was measured (after removing dead cells and non-singlets from the analysis). The MFI values were used to generate a dose-response curve and obtain IC50 potencies for the test peptides.

IC50 | Molecule
0.0142 µM | CC[C@H](C)[C@@H]1NC(=O)[C@@H](NC(=O)[C@@H]2CCCN2C(=O)[C@@H](NC(=O)[C@H](Cc2cnc[nH]2)NC(=O)[C@@H](NC(=O)[C@H](CCC(=O)O)NC(=O)CC(C)C)[C@@H](C)O)C(c2ccccc2)c2ccccc2)CSSC[C@@H](C(N)=O)NC(=O)[C@@H](CCCCN)NC(=O)C[C@H](Cc2ccccc2)NC(=O)[C@H](CCCCNC(=O)COCCOCCNC(=O)COCCOCCNC(=O)[C@H](CN)NC(=O)CCCCCCCCCCCCCCCCC(=O)O)NC1=O [Compound 278, Isovaleric Acid-E-T-H-[Dpa]-P—C—I-[Lys(1PEG2_1PEG2_Dap_C18_Diacid)]-[bhPhe]-[(D)Lys]-C—NH2]
